Patent publication US20040253623

Experiments:
[1] = tested on: Zif268 finger 3 Asp2Ala D2A in finger 3 (helix position 2); details: phage ELISA; PBS, 50 uM ZnCl2, 20 C
[2] = tested on: F2-Arg finger 3 Asp2Ala D2A in finger 3 (helix position 2) (Artificial Sequence); details: phage ELISA; PBS, 50 uM ZnCl2, 20 C

“GCGTGGGCG (double strand) [Zif268 consensus site]” showed a binding signal (fold lower affinity than wild type) [1] of 4.
For “GCGGTGGCG (double strand) [F2-Arg consensus site]”, the binding signal (fold lower affinity than parent F2-Arg) [2] was 4.
